Measured values reported in US20220088190A1 (University of Pennsylvania, published 2022).

Experiments:
[1] = target: T1, HLA-A*03:01 (human); experiment: peptide-MHC binding, competitive fluorescence polarization assay
T1 construct: the construct is not described

[2] = target: T2, HLA-A*11:01 (human); experiment: as above
T2 construct: the construct is not described

[3] = target: T3, HLA-A*11:01 expressed on monoallelic K562 RAS TMG cells (human); experiment: HLA class I immunoprecipitation, peptide elution and tandem MS/MS from monoallelic K562 RAS TMG cells (FIG. 8E)
T3 construct: also called K562-A*11:01

[4] = target: T4, HLA-A*03:01 expressed on monoallelic K562 RAS TMG cells (human); experiment: HLA class I immunoprecipitation, peptide elution and tandem MS/MS from monoallelic K562 RAS TMG cells (FIG. 8D)
T4 construct: also called K562-A*03:01

[5] = target: T3, HLA-A*11:01 expressed on monoallelic …; experiment: HLA class I immunoprecipitation, peptide elution and tandem MS/MS from monoallelic K562 RAS TMG cells (FIG. 8I)
[6] = target: T5, HLA-B*07:02 (human); experiment: peptide-MHC binding, competitive fluorescence polarization assay
T5 construct: the construct is not described

[7] = target: T6, HLA-B*07:02 expressed on monoallelic K562 RAS TMG cells (human); experiment: HLA class I immunoprecipitation, peptide elution and tandem MS/MS from monoallelic K562 RAS TMG cells (FIG. 8J)
T6 construct: also called K562-B*07:02

[8] = target: T4, HLA-A*03:01 expressed on monoallelic …; experiment: HLA class I immunoprecipitation, peptide elution and tandem MS/MS from monoallelic K562 RAS TMG cells (FIG. 8A)
[9] = target: T3, HLA-A*11:01 expressed on monoallelic …; experiment: HLA class I immunoprecipitation, peptide elution and tandem MS/MS from monoallelic K562 RAS TMG cells (FIG. 8F)
[10] = target: T4, HLA-A*03:01 expressed on monoallelic …; experiment: HLA class I immunoprecipitation, peptide elution and tandem MS/MS from monoallelic K562 RAS TMG cells (FIG. 8C)
[11] = target: T3, HLA-A*11:01 expressed on monoallelic …; experiment: HLA class I immunoprecipitation, peptide elution and tandem MS/MS from monoallelic K562 RAS TMG cells (FIG. 8G)

B1: mRAS peptide VVV_R (RAS G12R), VVVGARGVGK (peptide)
peptide: VVVGARGVGK
notes: 10-mer mutant RAS short peptide; also called R-10
B1: binds [1]; binds [2].

B2: mRAS peptide VV_D (RAS G12D), VVGADGVGK (peptide)
peptide: VVGADGVGK
notes: 9-mer mutant RAS short peptide; also called D-9
B2: binds [2]; binds [3].

B3: mRAS peptide VV_R (RAS G12R), VVGARGVGK (peptide)
peptide: VVGARGVGK
notes: 9-mer mutant RAS short peptide; also called R-9
B3: binds [2]; binds [4]; binds [5].

B4: mRAS peptide GA_R (RAS G12R), GARGVGKSAL (peptide)
peptide: GARGVGKSAL
notes: 10-mer mutant RAS short peptide; also called R-10 (B*07:02 panel)
B4: binds [6]; binds [7].

B5: mRAS peptide VV_C (RAS G12C), VVGACGVGK (peptide)
peptide: VVGACGVGK
notes: 9-mer mutant RAS short peptide; also called C-9
B5: binds [2].

B6: mRAS peptide VVV_D (RAS G12D), VVVGADGVGK (peptide)
peptide: VVVGADGVGK
notes: 10-mer mutant RAS short peptide; also called D-10
B6: binds [2]; binds [8]; binds [9].

B7: mRAS peptide VVV_V (RAS G12V), VVVGAVGVGK (peptide)
peptide: VVVGAVGVGK
notes: 10-mer mutant RAS short peptide; also called V-10
B7: binds [1]; binds [2]; binds [10]. B7: binds [11].
